According to patent publication US20040001822A1, “Y1-isolated molecules comprising epitopes containing sulfated moieties, antibodies to such epitopes, and uses thereof” (priority 2000, published 2004):

Legend:
primary leukemia cells = assay: FACS binding of Y1 to primary leukemia cells of patients; set-up: species or system human
Protocol: Samples provided from hospitals. Patients sample 30 μl/tube. Add 5 μl/tube of CD33-APC (for AML) or CD19-APC (for B-CLL) or CD38-APC (for Multiple Myeloma). Add 5 μl/tube of CD45-PerCp and 5 μl of scFv-Y1 or control scFv-N31 or CD162-PE (KPL1). Incubate tubes 30 minutes at 4° C. with low shaking. Wash by adding 2 ml PBS and spin 5 minutes at 1200 rpm. Discard supernatant.
For a one step assay continue with the lysis step:
Add 500 μl BD Lysine solution diluted 1:10 with ddH2O (300 μl to patient sample). Vortex at high speed and incubate 12 minutes at 4° C. Wash as above. Discard supernatant. And add 500 μl PBS. The samples are read in the FACS using blood sample acquisition setup according to international standards.
For two or more assays: working buffer is PBS+1% BSA+0.05% sodium azide. Incubations and wash as above.
Lysis of the red blood cells is the final step in the assay, followed by resuspension with 500 μl PBS.

[1] = test system: platelet-rich-plasma (PRP); assay: Ristocetin-induced aggregation of platelet-rich plasma after preincubation with scFv; format: cell-based, human; conditions: scFv 25 μg/ml
Protocol: The effect of Y1 (scfv) on aggregation of platelet-rich-plasma (PRP) was tested at various concentrations of Y1. PRP was pre-incubated with Y1 scfv, Y17 scfv, or a control sTM-1cFv for 4 min at 37° C. before being exposed to ristocetin, an inducer of platelet agglutination and aggregation. A reversible inhibitory effect was observed when scFv was added to PRP prior to the addition of ristocetin, and it was dose dependent.
Blood was collected into a tube containing 3.8% sodium citrate. Platelet-rich plasma was prepared by centrifugation at 250×g for 10 minutes.
(§1) For platelet aggregation studies, platelet rich plasma (PRP) and washed platelets were stirred at 500 rpm at 37° C. in whole blood Lumiaggregometer (Chronolog, Havertown,Pa.). The difference in light transmission through the platelet suspension and suspending medium was taken as 100% aggregation. The effect of Y1 on platelet aggregation was evaluated by addition of different concentration of Y1 before the addition of agonist, and the effect was recorded for four minutes.

[2] = biological target: T1, natural human platelet derived glycocalicin (Homo sapiens, UniProt P07359); assay: Western blot on natural human platelet derived glycocalicin; format: binding; conditions: semi-purified human platelet derived glycocalicin
T1 construct: glycocalicin (soluble, extracellular fragment of GPIbα); from tissue; host or cells: human platelets
Protocol: The DNA fragment encoding for glycocalicin (GC, amino acid 1 to amino acid 493 of GPIbα ) was cloned into an IPTG inducible prokaryotic vector cassette. E. coli (BL21 DE3) cells harboring the newly constructed plasmid were grown at 37° C. to O.D. 0.7-0.8, than at 37° C. for 3 hours for in the presence of IPTG for induction.
SDS-polyacrylamide gel loaded either with semi-purified human platelet derived glycocalicin (“GC”) or with E. coli cell lysates (“total”) derived from induced and non-induced cells were analyzed. Western blot analysis was performed with biotinylated Y1-scfv, polyclonal rabbit anti-human glycocalicin antibody, commercially available mouse anti-human CD42 monoclonal antibody (SZ2 Immunotech, PM640 Serotec, HIP1 Pharmigen, AN51 DAKO), and polyclonal antibody against the N-terminus of GPIbα (Sc-7071, Santa Cruz).
The DNA fragment encoding the N-terminal soluble part of human platelet GP1b-glycocalicin (GC, amino acid 1 to amino acid 493) was cloned into an IPTG inducible prokaryotic vector cassette. E. coli (BL21 DE3) cells harboring the newly constructed plasmid were grown at 37° C. to O.D. 0.7-0.8, than at 37° C. for 3 hours for in the presence of IPTG for induction. SDS-polyacrylamide gel loaded either with semi-purified human platelet derived GC or with E. coli cell lysates (total protein content) derived from induced and non-induced cells were analyzed. […]

[3] = test system: glycocalicin, platelet lysate, KG-1 cell lysate, Raji cell lysate; assay: Western blot on glycocalicin, platelet, KG-1 and Raji lysates; format: binding, human; conditions: FIG. 20
Text: Antibodies against GPIbα (CD42b) recognize platelet lysate and glycocalicin and but not KG-1 cell lysate (a Y1 binding positive myeloid cell line) or Raji cell lysate (a B cell line that is negative for Y1 binding at concentrations at which KG-1 cells are positive for Y1 binding). […] (FIG. 20).

washed platelets = assay: Effect of Y1-IgG on agglutination of washed platelets with or without ristocetin; format: cell-based, human; conditions: IgG 1 μg/ml
Text: Due to its natural structure the full IgG Y1 has two binding sites on GPIbα and one binding site for an Fc receptor. It is likely that if full IgG Y1 binds two GPIbα molecules, it will activate platelets and induce platelet agglutination. Furthermore, because platelets have an Fc-receptor, Y1-IgG can induce platelet agglutination by binding to GPIbα and to an Fc-receptor, thereby producing platelet agglutination by each IgG Y1 binding to three platelets. Therefore, the effect of IgG Y1 on aggregation of washed platelets was tested at different concentrations of Y1-IgG in the presence or absence of ristocetin. Induction of platelet aggregation by Y1-IgG was monitored for 4 min at 37° C., followed by addition of ristocetin.
The results are presented in Table 6 and FIG. 17 without agonist. Y1-IgG alone at a final concentration of 50 μg/ml induced platelet agglutination ˜39% of normal agglutination of washed platelets. Induction of platelet agglutination by Y1-IgG was tested for 4 min at 37° C., followed by addition of ristocetin. […]
as §1, with “The difference in light transmission through the platelet suspension and suspending medium was taken as 100% aggregation.” left out

Jurkat cells = assay: FACS binding of IgG-Y1 compared with scFv-Y1; set-up: species or system human; conditions: 5 ng IgG-Y1 versus 1 μg scFv-Y1, Jurkat cells
Protocol: Binding of full size IgG-Y1 molecule: Binding experiments were performed to determine the level of binding of the IgG-Y1 molecule compared to the binding level of the scFv-Y1 molecule. A two-step staining procedure was employed, wherein 5 ng of IgG-Y1 were reacted with both RAJI cells (negative control, FIG. 44) and Jurkat cells (Y1 positive cells, FIG. 44). For detection, PE-labeled goat anti-human IgG was used. Similarly, 1 μg of scFv-Y1 was reacted with Jurkat cells (FIG. 44), and PE-labeled rabbit anti-scFv was used for detection.

B1: Y1 scFv: fully human scFv clone binding platelets and myelogenous leukemia cells, SEQ ID NO: 25 (protein, listed as Homo sapiens)
scFv: MKYLLPTAAAGLLLLAAQPAMAEVQLVESGGGVVRPGGSLRLSCAASGFTFDDYGMSWVRQAPGKGLEWVSGINWNGGSTGYADSVKGRFTISRDNAKNSLYLQMNSLRAEDTAVYYCARMRAPVIWGQGTLVTVSRGGGGSGGGGSGGGGSSELTQDPAVSVALGQTVRITCQGDSLRSYYASWYQQKPGQAPVLVIYGKNNRPSGIPDRFSGSSSGNTASLTITGAQAEDEADYYCNSRDSSGNHVVFGGGTKLTVLGAAAEQKLISEEDLNGAA
In the case of B1, the “% Positive” value (primary leukemia cells; patients with AML) is reported as 80%, the “Number Positive” value (primary leukemia cells; patients with AML) is reported as 60/75 and the “% Positive” value (primary leukemia cells; patients with B-Leukemia) is reported as 67%. For the same molecule, the “Number Positive” value (primary leukemia cells; patients with B-Leukemia) was 29/43, the “% Positive” value (primary leukemia cells; patients with Multiple Myeloma) was 100% and the “Number Positive” value (primary leukemia cells; patients with Multiple Myeloma) was 16/16. For the same molecule, the “% aggregation” value [1] was 87%, the “% inhibition” value ([1]; listed as Y1) was “no significant inhibition” and the “recognition in Western blot” value [2] was “recognized”. For the same molecule, the “recognition in Western blot” value ([2]; listed as scFv Y1) was “recognized only the natural human derived GC”, the “recognition in Western blot” value [3] was “recognized both glycocalicin, platelet lysate, and KG-1 cells, but not Raji cell extract” and the “% agglutination Without ristocetin” value (washed platelets) was “no induction”. The “more molecules needed for a level of detection similar to that of IgG-Y1” value (Jurkat cells) was “approximately 10^3 fold”.
